B1: TPR t1 (parent)
chain: GACCAAUCUGCCCUCAGAGCUCGAGAACAUCUUCGGAUGCAGAGGAGGCAGGCUUCGGUGGCGCGAUAGCGCCAACGUCCUCAACCUCCAAUGCAUCCCACCACAUGAUGAUGCCUGAAGAGCCUUGGUUUUUUG

Variants of: B1
Assay: polymerase ribozyme fitness, log enrichment relative to wild type (log ratio); higher = more active; in vitro selection for triplet polymerase activity
Outline: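 Fitness compares each genotype's enrichment to that of the wild type on a logarithmic scale, averaging replicates with inverse-variance weights. The logarithm is base 2. Enrichment came from Illumina sequencing of input and output libraries after one triplicate round of in vitro selection, which included frozen incubation at −7 °C, of PCR-built, transcribed mutant libraries of each subunit of a heterodimeric triplet polymerase ribozyme. Only genotypes with ≥10 input reads and ≥1 read per output were kept.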

| Variant | polymerase ribozyme fitness (log ratio) |
| --- | --- |
| GACCAAUCUGCCCUCAGAGCUCGAGAACAUCUUCGGAUGCAAAGGAGGCAGGCUUCGGUGGCGCGAUAGCGCCAACGUCCUCAACCUCCAAUGCAUCCCACCACAUGAUGGUCCCUGAAGCGCCUUGGUUUUUUG [G42A A111G G113C A121C] | -0.948 |
| GACCAAUCUGCCCUCAGAGCUCGAGAACAUCUUCGGAUGCAAAGGAGGCAGGUUUCGGUGGCUCGAUAGCGCCAACGUCCUCAACCUCCAAUGCAUCCCACCACAUGAUGAUGCCUGAAGAGCCUUGGUUUUUUG [G42A C53U G63U] | -3.99 |
| GACCAAUCUGCCCUCAGAGCUCGAGAACAUCUUCGGAUGCAAAGGAGGCAGGCUUCGGUGGUGCGAUAGCGCCAACGUCCUCAACCUCCAAUGCAUCCCACCACAUGAUGAUGCCUGAAGAGCCUUGGUUUUUUG [G42A C62U] | -2.15 |
| GACCAAUCUGCCCUCAGAGCUCGAGAACAUCUUCGGAUGCAAAGGAGGCAGGCUUCGGUGGCGUGAUAGCGCCAACGUCCUCAACCUCCAAUGCAUCCCACCACAUGAUGAUGCAUGAUGAGCCUUGGUUUUUUG [G42A C64U C115A A119U] | -3.76 |
| GACCAAUCUGCCCUCAGAGCUCGAGAACAUCUUCGGAUGCAAAGGAGGCAGGCUUCGGUGGCGUGAUAGCGCCAACGUCCUCAACCUCCAAUGCAUCCCACCACAUGAAGAUGCCUGAAGAGCCUUGGUUUUUUG [G42A C64U U109A] | -6.32 |
| GACCAAUCUGCCCUCAGAGCUCGAGAACAUCUUCGGAUGCAAAGGAGGCAGGCUUCGGUGGCGCGAUAGAGCCAACGUCCUCAUCCUCCAACGCAACCCACGACAUGAUGAUGCCUGAAGAGCGUUGGUUUUUUG [G42A C70A A84U U92C U96A C102G C124G] | -6.77 |
| GACCAAUCUGCCCUCAGAGCUCGAGAACAUCUUCGGAUGCAAAGGAGGCAGGCUUCGGUGGCGCGAUAGAGCCAACGUCCUCAACCUGCAAUGCAUCCCACCACAUGAUGAUGCCUGAAGAGCCUUGGUUUUUUG [G42A C70A C88G] | -6.71 |
| GACCAAUCUGCCCUCAGAGCUCGAGAACAUCUUCGGAUGCAAAGGAGGCAGGCUUCGGUGGCGCGAUAGCGACAACGUCCUCAACCUCCAAUGCAUCCCACCACAUGAUGAUGUCUGAAGAGCCUUGGUUUUUUG [G42A C72A C114U] | -2.37 |
| GACCAAUCUGCCCUCAGAGCUCGAGAACAUCUUCGGAUGCAAAGGAGGCAGGCUUCGGUGGCGCGAUAGCGGCAACGUCCUCAACCUGCAAUGCAUCCCACCACAUGAUGAUGCCUGAAGAGCCUUGGUUUUUUG [G42A C72G C88G] | -3.92 |
| GACCAAUCUGCCCUCAGAGCUCGAGAACAUCUUCGGAUGCAAAGGAGGCAGGCUUCGGUGGCGCGAUAGCGGCAACGUCCUCAACCUCGAAUGCAUCCCACCACAUGAUGAUGCCUGAAGAGCCUUGGUUUUUUG [G42A C72G C89G] | -3.84 |
| GACCAAUCUGCCCUCAGAGCUCGAGAACAUCUUCGGAUGCAAAGGAGGCAGGCUUCGGUGGCGCGAUAGCGCUAACGUCCUCAACCUCCAAUGCAUCCCACCACAUGAUGAUGCCUGAAGAGCCUUGGUUUUUUG [G42A C73U] | -1.61 |
| GACCAAUCUGCCCUCAGAGCUCGAGAACAUCUUCGGAUGCAAAGGAGGCAGGCUUCGGUGGCGCGAUAGCGCCAACGUGCUCAACCUCCAAUGCAUCCCACCACAUGAUGAUACCUGAAGAGCCUUGGUUUUUUG [G42A C79G G113A] | -4.19 |
| GACCAAUCUGCCCUCAGAGCUCGAGAACAUCUUCGGAUGCAAAGGAGGCAGGCUUCGGUGGCGCGAUAGCGCCAACGUCCUUAACCUCCAAUGCAUCCCACCACAUGAUGAUGCCUGAAGAGCCUUGGUUUUUUG [G42A C82U] | -1.95 |
| GACCAAUCUGCCCUCAGAGCUCGAGAACAUCUUCGGAUGCAAAGGAGGCAGGCUUCGGUGGCGCGAUAGCGCCAACGUCCUCAAUCUCCAAUGCAUCCCACCACAUGAUGAUGCCUGAAGAGCCUUGGUUUUUUG [G42A C85U] | -2.41 |
| GACCAAUCUGCCCUCAGAGCUCGAGAACAUCUUCGGAUGCAAAUGAGGCAGGAUACGGUGGCGCGAUAGCGCCAACGUCCUCAACCUCCAAUGCAUCCCACCACAUGAUGAUGCCUGAAGAGCCUUCGUUUUUUG [G42A G44U C53A U55A G127C] | -3.14 |
| GACCAAUCUGCCCUCAGAGCUCGAGAACAUCUUCGGAUGCAAAUGAGGCAGGCUUCGGUGGCGCGAUAGUGCCAAUGUCCUCAACCUCCAAUGCAUCCCACCACAUGAUGAUGCCUGAAGAGCCUUGGUUUUUUG [G42A G44U C70U C76U] | -4.28 |
| GACCAAUCUGCCCUCAGAGCUCGAGAACAUCUUCGGAUGCAAAGCAGGCAGGCUUCGGUGGCGCGAUAUCGCCAACGUCCUCAACCUCCAAUGCAUCCCACCACAUGAUGAUGCCUGAAGAGUCUUGGUUUUUUG [G42A G45C G69U C123U] | -0.482 |
| GACCAAUCUGCCCUCAGAGCUCGAGAACAUCUUCGGAUGCAAAGUAGGCAGGCUUCGGUGGCGCGAUGGCGCCAACGUCCUUAACCUCUUAUGCAUCCCACCACAUGAUGAUGCCUGGAGAGCCUUGGUUUUUUG [G42A G45U A68G C82U C89U A90U A118G] | -4.62 |
| GACCAAUCUGCCCUCAGAGCUCGAGAACAUCUUCGGAUGCAAAGUAGGCAGGCUUCGGUGGCGCGAUAGCGCCAACGUCCUUAACCUCUUAUGCAUCCCACCACAUGAUGAUGCCUGGAGAGCCUUGGUUUUUUG [G42A G45U C82U C89U A90U A118G] | -1.67 |
| GACCAAUCUGCCCUCAGAGCUCGAGAACAUCUUCGGAUGCAAAGGAGCCAGGCUUGGGUGGCGCGAUAGCGCCAACGUCCUCAACUUCCAAUGCAUCCCAGCACAUGAUGAUGCCUGAAGAGCCUUGGUUUUUUG [G42A G48C C56G C86U C101G] | -4.3 |
| GACCAAUCUGCCCUCAGAGCUCGAGAACAUCUUCGGAUGCAAAGGAGCCAGGCUUCGGUGGAGCGAUAGCGCCAACGUCCUCAACCUCCAAUGCAUCCCACCACAUGAUGAUGCCUGAUGAGCAUUGGUUUUUUG [G42A G48C C62A A119U C124A] | -3.3 |

| Variant | polymerase ribozyme fitness (log ratio) |
| --- | --- |
| GACCAAUCUGCCCUCAGAGCUCGAGAACAUCUUCGGAUGCAAAGGAGGCAGGCUUCGGUAGCGCGAUAGCGCCAACGUCCUCAACCUCCAAUGCAUCCCACCACAUGAUGAUGCCUGAAGAGCCUUGGUUUUUUG [G42A G60A] | -2.03 |
| GACCAAUCUGCCCUCAGAGCUCGAGAACAUCUUCGGAUGCAAAGGAGGCAGGCUUCGGUUGCGCGAUAUCGCCAACGUCCUCAACCUCCAAUGCAUCCCACCACAUGAUGAUGCCUGAAGAGCCUUGGUUUUUUG [G42A G60U G69U] | -6.05 |
| GACCAAUCUGCCCUCAGAGCUCGAGAACAUCUUCGGAUGCAAAGGAGGCAGGCUUCGGUGCCGCGAUAGCGCCAACGUCCUCAACCUCCAAUGCAUCCCACCACAUGAUGAUGCCUGAAGAGCCUUGGUUUUAUG [G42A G61C U133A] | -5.31 |
| GACCAAUCUGCCCUCAGAGCUCGAGAACAUCUUCGGAUGCAAAGGAGGCAGGCUUCGGUGUCGCGAUAGCGCCAACGUCCUCAACCUCCAAUGCAUCCCACCACAUGAUGAUGCCUGAAGAGCCUUGGUUUUUUG [G42A G61U] | -2.48 |
| GACCAAUCUGCCCUCAGAGCUCGAGAACAUCUUCGGAUGCAAAGGAGGCAGGCUUCGGUGGCACGAUAGCGCCAACGUCCUCUACCUCCAAUGCAUCCCACCACAUGAUGAUGCCUGAAGUGCCUUGGUUUUUUG [G42A G63A A83U A121U] | -3.11 |
| GACCAAUCUGCCCUCAGAGCUCGAGAACAUCUUCGGAUGCAAAGGAGGCAGGCUUCGGUGGCCCGAUAGCGCCAACGUCCUCAACCUCCAAUGCAUCCCACCACAUGAUGAUGCCUGAAGAGCCUUGGUUUUGUG [G42A G63C U133G] | -3.43 |
| GACCAAUCUGCCCUCAGAGCUCGAGAACAUCUUCGGAUGCAAAGGAGGCAGGCUUCGGUGGCUCGAUAGCGCCAACGUCCUCAACCUCCAAUGCAUCCCACCACAUGAUGAUGCCUGAAGAGCCUUGGUUUUUUG [G42A G63U] | -3.48 |
| GACCAAUCUGCCCUCAGAGCUCGAGAACAUCUUCGGAUGCAAAGGAGGCAGGCUUCGGUGGCGCGAUAUCGCCAACGUCCUCAACCUCCAAUGCAUCCCACCACAUGAUGAUGCCUGAAGAGCCUUGGUUUUUUG [G42A G69U] | -0.125 |
| GACCAAUCUGCCCUCAGAGCUCGAGAACAUCUUCGGAUGCAAAGGAGGCAGGCUUCGGUGGCGCGAUAUCGCCAAAGUCCUCAACCUCCAAUGCAUCCCACCACAUGAUGAUGCCUGAAGUGCCUUGGUUUUUUG [G42A G69U C76A A121U] | -3.23 |
| GACCAAUCUGCCCUCAGAGCUCGAGAACAUCUUCGGAUGCAAAGGAGGCAGGCUUCGGUGGCGCGAUAGCUCCAACGUCCUCAACCUCCAAUGCAUCCCACCACAUGAUGAUGCCUGAAGAGCCUUGGUUUUUUG [G42A G71U] | -2.41 |
| GACCAAUCUGCCCUCAGAGCUCGAGAACAUCUUCGGAUGCAAAGGAGGCAGGCUUCGGUGGCGCGAUAGCUCCAACGUCCUCAACCUCCAAUGCAUCCCACCACAUGAUGAUGCCUGAUGAGCCUUGGUUUUUUG [G42A G71U A119U] | -2.99 |
| GACCAAUCUGCCCUCAGAGCUCGAGAACAUCUUCGGAUGCAAAGGAGGCAGGCUUCGGUGGCGCGAUAGCGCCAACGUCCUCAACCUCCAAUGCAUCCCACCACAUGAUGAUGCCUAAAGAGCCUUGGUUUUUUG [G42A G117A] | -2.65 |
| GACCAAUCUGCCCUCAGAGCUCGAGAACAUCUUCGGAUGCAAAGGAGGCAGGCUUCGGUGGCGCGAUAGCGCCAACGUCCUCAACCUCCAAUGCAUCCCACCACAUGAUGAUGCCUGAAGAGCCUUGCUUUUUUG [G42A G128C] | -4.63 |
| GACCAAUCUGCCCUCAGAGCUCGAGAACAUCUUCGGAUGCAAAGGAGGCAGGCUCCGGUGGCGCGAUAGCGCCAACGUCCUCAACCUCCAAUGCAUCCCACCACAUGAUGAUGCCUGAAGAGCCUUGGUUUUUUG [G42A U55C] | -2.24 |
| GACCAAUCUGCCCUCAGAGCUCGAGAACAUCUUCGGAUGCAAAGGAGGCAGGCUUCGGUGGCGCGAUAGCGCCAACGACCUCAACCCCCAAUGCAUCCCACCACAUGAUGAUGUCUGAAGAGCCUUGGUUUUUUG [G42A U78A U87C C114U] | -2.27 |
| GACCAAUCUGCCCUCAGAGCUCGAGAACAUCUUCGGAUGCAAAGGAGGCAGGCUUCGGUGGCGCGAUAGCGCCAACGGCCUCAACCCCCAAUGCAUCCCACCACAUGAUGAUGUCUGAAGAGCCUUGGUUUUUUG [G42A U78G U87C C114U] | -2.18 |
| GACCAAUCUGCCCUCAGAGCUCGAGAACAUCUUCGGAUGCAAAGGAGGCAGGCUUCGGUGGCGCGAUAGCGCCAACGUCCACAACCUCCAAUGCAUCCCACCACAUGAUGAUGCCUGAAGAGCCUUGGUUUUUUG [G42A U81A] | -4.25 |
| GACCAAUCUGCCCUCAGAGCUCGAGAACAUCUUCGGAUGCAAAGGAGGCAGGCUUCGGUGGCGCGAUAGCGCCAACGUCCUCAACCUCCAAUGCAACCCACCACAUGAUGAUGCCUGAAGAGCCUUGGUUUUUUG [G42A U96A] | -2.83 |
| GACCAAUCUGCCCUCAGAGCUCGAGAACAUCUUCGGAUGCAAAGGAGGCAGGCUUCGGUGGCGCGAUAGCGCCAACGUCCUCAACCUCCAAUGCAUCCCACCACAUGAUGAUGCCUGAAGAGCCUUGGAUUUUUG [G42A U129A] | -3.37 |
| GACCAAUCUGCCCUCAGAGCUCGAGAACAUCUUCGGAUGCACAGGAGGCAGGCUUCGGUGGCGCGAUAGCGCCAACGUCCUCAACCUCCAAUGCAUCCCACCACAUGAUGAUGCCUGAAGAGCCUUGGUUUUUUG [G42C] | -1.3 |
| GACCAAUCUGCCCUCAGAGCUCGAGAACAUCUUCGGAUGCACCGGAGGCAGGCUUCGGUGGCGCGAUAGCGCCAACGUCCUCAACCUCCAAUGCAUCCCACCACAUGAUGAUGCAUGAAGAGCCUUGGUUUUUUG [G42C A43C C115A] | -1.55 |

From the RNAGym collection of RNA variant scans (doi:10.1073/pnas.2313332121)
